Results from article PMC6220978, “Induced conformational changes activate the peptidoglycan synthase PBP1B” (Molecular Microbiology, 2018).
Numbering of substitutions follows the chain as printed.

Assays:
Test in all cases: SPR; PBP1B versions immobilised to the chip surface; LpoB injected from 19.5 nM to 10 μM; apparent KD by non-linear regression, at least three independent experiments
Conditions in all cases: both partners purified
PBP1B^Δ158–160 = target: T1, PBP1B^Δ158–160 (E. coli, UniProt P02919 46-844, Δ158–160)
T1 construct: PBP1B, E. coli, residues 46-844 with residues 158-160 of Loop 1 removed, made by mutagenesis of pDML924; also called Loop 1 truncation; source: E. coli BL21(DE3), purified (membrane extract, HisTrap, thrombin, HiTrap SP ion exchange)
T1 sequence (looked up): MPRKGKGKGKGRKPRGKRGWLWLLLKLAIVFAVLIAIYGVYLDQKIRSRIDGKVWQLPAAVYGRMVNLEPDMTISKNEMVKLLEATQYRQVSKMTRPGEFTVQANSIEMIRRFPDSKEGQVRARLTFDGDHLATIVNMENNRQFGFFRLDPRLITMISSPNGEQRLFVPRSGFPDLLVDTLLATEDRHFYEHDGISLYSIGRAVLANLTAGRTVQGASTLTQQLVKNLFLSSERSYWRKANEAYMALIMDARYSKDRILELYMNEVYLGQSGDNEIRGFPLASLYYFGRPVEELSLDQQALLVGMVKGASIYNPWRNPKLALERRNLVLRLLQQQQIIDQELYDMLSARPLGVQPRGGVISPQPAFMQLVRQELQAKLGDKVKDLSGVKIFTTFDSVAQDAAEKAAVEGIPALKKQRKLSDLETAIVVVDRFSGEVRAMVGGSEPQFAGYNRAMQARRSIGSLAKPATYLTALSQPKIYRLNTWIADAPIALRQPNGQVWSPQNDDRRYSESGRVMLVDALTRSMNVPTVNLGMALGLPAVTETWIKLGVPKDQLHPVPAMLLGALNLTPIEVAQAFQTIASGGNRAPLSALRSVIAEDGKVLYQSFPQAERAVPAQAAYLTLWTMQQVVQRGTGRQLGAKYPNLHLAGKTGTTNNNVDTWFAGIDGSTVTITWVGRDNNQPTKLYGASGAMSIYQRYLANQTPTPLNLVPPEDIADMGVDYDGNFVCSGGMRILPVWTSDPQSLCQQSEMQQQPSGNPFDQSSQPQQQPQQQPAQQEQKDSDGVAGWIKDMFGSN

PBP1B P162C/I644C = target: T2, PBP1B P162C/I644C (E. coli, UniProt P02919 46-844, P162C | I644C)
T2 construct: PBP1B, E. coli, residues 46-844, made by mutagenesis of pDML924; Disulphide bridge between C162 and C644 (no free thiol groups detected); reduced in the SPR assay with 2 mM TCEP; source: E. coli BL21(DE3), purified (membrane extract, HisTrap, thrombin, HiTrap SP ion exchange)
T2 sequence (looked up): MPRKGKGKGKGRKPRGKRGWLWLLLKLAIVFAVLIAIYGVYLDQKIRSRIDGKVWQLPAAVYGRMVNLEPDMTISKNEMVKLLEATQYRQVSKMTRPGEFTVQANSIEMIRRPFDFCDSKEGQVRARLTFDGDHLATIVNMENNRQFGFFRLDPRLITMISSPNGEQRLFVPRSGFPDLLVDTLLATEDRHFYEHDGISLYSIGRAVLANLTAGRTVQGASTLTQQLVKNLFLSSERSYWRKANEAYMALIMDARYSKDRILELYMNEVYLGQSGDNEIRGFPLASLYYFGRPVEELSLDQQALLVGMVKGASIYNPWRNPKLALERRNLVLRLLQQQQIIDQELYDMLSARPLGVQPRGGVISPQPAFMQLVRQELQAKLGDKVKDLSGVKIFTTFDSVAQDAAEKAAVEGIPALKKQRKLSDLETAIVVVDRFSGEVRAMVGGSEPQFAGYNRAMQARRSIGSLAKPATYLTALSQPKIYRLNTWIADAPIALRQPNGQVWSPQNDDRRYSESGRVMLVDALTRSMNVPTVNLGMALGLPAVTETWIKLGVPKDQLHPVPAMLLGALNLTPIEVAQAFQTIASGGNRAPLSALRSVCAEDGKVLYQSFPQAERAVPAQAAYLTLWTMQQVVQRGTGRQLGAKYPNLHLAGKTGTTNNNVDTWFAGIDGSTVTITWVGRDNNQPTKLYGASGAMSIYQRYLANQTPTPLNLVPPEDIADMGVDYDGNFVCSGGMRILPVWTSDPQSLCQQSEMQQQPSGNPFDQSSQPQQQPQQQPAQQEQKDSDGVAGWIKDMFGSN

[1] = target: T3, PBP1B (wild type, PBP1B^46-844) (E. coli, UniProt P02919 46-844)
T3 construct: PBP1B, E. coli, residues 46-844, encoded on pDML924; Immobilised on the SPR chip as in Egan et al. 2014 / Gray et al. 2015; also called WT PBP1B; WT; source: E. coli BL21(DE3), purified (membrane extract, HisTrap, thrombin, HiTrap SP ion exchange)
T3 sequence (looked up): T2 sequence (looked up) with C117P, C599I

B1: LpoB (natural protein, E. coli)
chain: VGQREPAPVEEVKPAPEQPAEPQQPVPTVPSVPTIPQQPGPIEHEDQTAPPAPHIRHYDWNGAMQPMVSKMLGADGVTAGSVLLVDSVNNRTNGSLNAAEATETLRNALANNGKFTLVSAQQLSMAKQQLGLSPQDSLGTRSKAIGIARNVGAHYVLYSSASGNVNAPTLQMQLMLVQTGEIIWSGKGAVSQQ
notes: LpoB, E. coli; also called lipoprotein LpoB; source: E. coli BL21(DE3), purified (HisTrap, Superdex 200), as in Egan et al. 2014
B1 was tested, and the Kd (PBP1B^Δ158–160) was 1900 nM, the Kd (PBP1B P162C/I644C) was 213 nM and the Kd [1] was 491 nM.
